This test deals with T1, fibrin (human, UniProt P02671 36-629; P02675 45-491; P02679 27-437, limits assumed).
T1 construct: Thin polymerised fibrin layer made by layer-by-layer deposition of fibrinogen-thrombin-fibrinogen on ELISA plates, SPR chips and interferometry sensors; Human is stated for the purified fibrinogen used in biopanning; also called fibrin layer; fibrin clot
T1 sequence (looked up) 1: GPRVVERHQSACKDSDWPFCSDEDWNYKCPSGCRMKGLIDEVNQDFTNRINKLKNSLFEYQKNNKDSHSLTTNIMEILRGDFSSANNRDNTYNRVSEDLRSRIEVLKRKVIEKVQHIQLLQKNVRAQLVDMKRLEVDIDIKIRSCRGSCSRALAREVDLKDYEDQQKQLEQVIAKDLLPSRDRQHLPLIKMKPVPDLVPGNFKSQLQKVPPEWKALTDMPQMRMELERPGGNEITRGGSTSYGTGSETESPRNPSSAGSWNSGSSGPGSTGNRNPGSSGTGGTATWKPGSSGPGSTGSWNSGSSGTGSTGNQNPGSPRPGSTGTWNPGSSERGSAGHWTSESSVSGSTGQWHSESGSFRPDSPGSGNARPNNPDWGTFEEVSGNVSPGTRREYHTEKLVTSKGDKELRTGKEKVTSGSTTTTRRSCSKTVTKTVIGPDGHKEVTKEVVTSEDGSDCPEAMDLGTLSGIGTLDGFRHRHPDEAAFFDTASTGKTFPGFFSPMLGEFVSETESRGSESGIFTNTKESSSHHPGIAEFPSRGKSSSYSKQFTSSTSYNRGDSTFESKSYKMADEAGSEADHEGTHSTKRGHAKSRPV
T1 sequence (looked up) 2: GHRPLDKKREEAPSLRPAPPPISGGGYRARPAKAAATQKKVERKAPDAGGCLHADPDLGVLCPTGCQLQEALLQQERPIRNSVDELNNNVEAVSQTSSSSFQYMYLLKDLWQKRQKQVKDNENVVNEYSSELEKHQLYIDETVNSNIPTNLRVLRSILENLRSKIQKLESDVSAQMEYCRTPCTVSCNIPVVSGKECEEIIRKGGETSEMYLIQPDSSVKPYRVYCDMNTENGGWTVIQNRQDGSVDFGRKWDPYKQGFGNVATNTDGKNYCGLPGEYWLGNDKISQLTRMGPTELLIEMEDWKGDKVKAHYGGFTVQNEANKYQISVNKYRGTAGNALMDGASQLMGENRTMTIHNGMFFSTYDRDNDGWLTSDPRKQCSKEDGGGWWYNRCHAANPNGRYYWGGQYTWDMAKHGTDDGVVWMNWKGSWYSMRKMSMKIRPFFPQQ
T1 sequence (looked up) 3: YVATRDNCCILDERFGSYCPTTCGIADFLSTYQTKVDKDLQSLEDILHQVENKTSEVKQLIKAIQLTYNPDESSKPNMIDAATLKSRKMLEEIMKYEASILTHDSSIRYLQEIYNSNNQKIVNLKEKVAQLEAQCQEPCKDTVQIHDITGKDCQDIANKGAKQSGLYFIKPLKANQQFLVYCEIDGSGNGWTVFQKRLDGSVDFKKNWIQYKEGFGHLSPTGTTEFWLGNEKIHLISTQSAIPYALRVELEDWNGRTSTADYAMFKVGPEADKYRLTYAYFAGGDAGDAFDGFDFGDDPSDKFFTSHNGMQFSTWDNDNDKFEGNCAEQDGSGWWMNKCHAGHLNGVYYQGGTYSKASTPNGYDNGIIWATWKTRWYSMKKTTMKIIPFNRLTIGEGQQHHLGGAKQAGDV
Nature of the test: SPR, sdFv flowed over immobilised fibrin layer, 1:1 Langmuir fit. The method, then: Based on previous SPR protocols developed in the lab⁴, a thin fibrin layer was immobilized on the surface of a gold SPR chip via layer-by-layer deposition of fibrinogen-thrombin-fibrinogen³. SdFvs were flowed across the fibrin surface and the binding interactions were evaluated and recorded. Additionally, antibody fragment binding interactions with a surface of immobilized fibrinogen was used to investigate the specificity to fibrin. All SPR data was examined and analyzed with Scrubber 2 and Clamp XP (Center for Biomolecular Interactions Analysis, University of Utah). Data simulation curves were generated based on a Langmuir 1:1 binding model assuming only a single ligand-analyte interaction.
The four most promising clones, based on their selectivity for fibrin over fibrinogen (clones A2, A6, B3 and H6) and a random clone (S11) were then evaluated through SPR analysis (FIGS. 2B-2K). […] Clones H6 and S11 (negative control) were subsequently utilized for creation of PLPs. Interferometry analysis verified that sdFv-microgels maintained their fibrin-binding capabilities (FIG. 3).
(SPR reads the build-up and loss of mass on a sensor chip optically.)

B1: H6 (VHH)
VHH: QVQLLESGGGLVQPGGSLRLSCAASGDRFTHNDMGWVRQAPGKGLEWVSTIPTTDGSTYYADSVKGRFTISRDNSKSTLYLQMNSLRAEDTAVYYCATGYMWKAPAYVKYWGQGTLVTVSS
notes: Human-derived single domain variable fragment (sdFv, VH only) from a phagemid library; Made as soluble sdFv in E. coli HB2151 and purified on protein A; also called clone H6; fibrin-specific sdFv
Turning to B1, binding was put at a Kd of 199 nM. In other words, the sub-micromolar range.

Source of the values: patent publication US20190224333A1 (published 2019).
